The results in this text go back to US20220305003A1, “METHODS OF TREATING CANCER WITH AN INHIBITOR OF ZNF827” (CHILDREN'S MEDICAL RESEARCH INSTITUTE, priority 2019, published 2022).

This data set addresses T1, ZNF827 full length (Homo sapiens, UniProt Q17R98 SEQ:1-1081).
T1 sequence: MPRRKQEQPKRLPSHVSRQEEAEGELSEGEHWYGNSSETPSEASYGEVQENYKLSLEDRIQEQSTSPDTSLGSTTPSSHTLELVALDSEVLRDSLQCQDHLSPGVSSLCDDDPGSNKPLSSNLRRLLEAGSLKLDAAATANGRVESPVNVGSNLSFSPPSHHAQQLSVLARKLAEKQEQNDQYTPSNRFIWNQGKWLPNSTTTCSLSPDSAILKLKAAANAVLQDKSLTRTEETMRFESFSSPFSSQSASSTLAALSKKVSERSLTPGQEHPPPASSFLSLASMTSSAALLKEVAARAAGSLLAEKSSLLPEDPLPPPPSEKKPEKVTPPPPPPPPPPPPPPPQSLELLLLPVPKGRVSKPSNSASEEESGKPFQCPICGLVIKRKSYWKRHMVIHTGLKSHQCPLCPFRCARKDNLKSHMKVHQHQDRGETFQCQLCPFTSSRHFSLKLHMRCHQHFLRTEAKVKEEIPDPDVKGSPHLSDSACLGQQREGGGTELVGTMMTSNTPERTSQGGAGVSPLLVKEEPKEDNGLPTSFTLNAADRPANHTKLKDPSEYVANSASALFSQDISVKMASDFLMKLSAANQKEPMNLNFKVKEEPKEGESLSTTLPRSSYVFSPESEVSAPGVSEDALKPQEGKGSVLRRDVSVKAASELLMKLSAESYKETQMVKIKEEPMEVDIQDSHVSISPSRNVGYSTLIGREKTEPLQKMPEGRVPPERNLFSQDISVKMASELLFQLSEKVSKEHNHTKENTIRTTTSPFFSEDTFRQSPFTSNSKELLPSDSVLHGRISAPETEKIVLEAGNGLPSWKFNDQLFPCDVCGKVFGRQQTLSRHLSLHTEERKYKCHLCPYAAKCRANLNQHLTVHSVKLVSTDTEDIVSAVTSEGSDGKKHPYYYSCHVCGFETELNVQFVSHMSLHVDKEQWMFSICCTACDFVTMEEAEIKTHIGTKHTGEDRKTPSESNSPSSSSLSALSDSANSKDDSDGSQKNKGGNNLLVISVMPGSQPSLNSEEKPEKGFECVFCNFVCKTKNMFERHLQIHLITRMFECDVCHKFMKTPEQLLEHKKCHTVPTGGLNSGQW
Description: EMSA; 0.8 mM ZnCl2, 100 mM KCl, poly(dI:dC), on ice. Conditions: tags: HaloTag (pHTN), expressed in HEK 293T, tag removed by HaloTEV cleavage; label: 32P (gamma). The procedure:
Purified proteins were quantified using a BCA assay using the Pierce™ BCA Protein Assay Kit according to the manufacturer's instructions. Equal amounts of purified proteins were incubated in binding buffer (20 mM HEPES-KOH, pH7.9, 100 mM KCl, 0.8 mM ZnCl₂, 0.2 mM EDTA, 5% glycerol, 0.5 mM DTT and 0.5 mM PMSF) with 6.25 μg/mL poly (dI:dC) and 50 ng/μL BSA on ice for 20 minutes. ˜0.12 nM (˜2.5 fmol) γ-³²P labelled DNA oligonucleotide (see Table 3) probes were added to samples and incubated on ice for another 30 minutes. Binding reactions were loaded onto an 8% native acrylamide/bisacrylamide (19:1, Biorad) gel pre-run at 100V in 0.5× TB buffer (89 mM Tris, 89 mM boric acid) for 20 minutes. Gels were electrophoresed at 150 V for 150 minutes at 4° C., dried at 65° C. for 45 minutes, and then exposed to a Phosphor screen overnight. Gel images were obtained by scanning the screens with a Typhoon FLA9500 Imager (GE Life Sciences).
On the technique in general: A gel shift assay detects complexes by their altered migration in electrophoresis.

For the molecule TTAGGGTTAGGGTTAGGG (ssDNA) [ss telomeric G rich oligo], the binding result is listed as “binds”.
